Experimental data: patent publication US9168297B2, “Regulation of skin pigmentation by neuregulin-1 (NRG-1)” (The United States of America, as Represented by the …, priority 2010, dated 2015)

Assays:
ERBB2 = ERBB2 protein level by western blotting in melanocytes; type: cell-based, human
Description: (§1) FIGS. 7A and 7B are digital images illustrating expression of ERBBs after NRG-1 treatment. FIG. 7A) HEM-LP and HEM-DP melanocytes were treated with or without NRG-1 (50 ng/ml) for 5 days, and levels of ERBB2, ERBB3 or ERBB4 were detected by western blotting. Results shown are representative of three studies. FIG. 7B) Expression of ERBB2 was examined in HEM-LP and in HEM-DP melanocytes after 1 or 9 days or treatment with NRG-1 compared to vehicle-treated controls; the results are representative of two independent studies.
FIGS. 8A and 8B are digital images illustrating the mechanism of ERBB2 abrogation after NRG-1 treatment. FIG. 8A) ERBB2 mRNA levels in HEM-LP and in HEM-DP melanocytes were detected by RT-PCR after treatment with or without NRG-1 (50 ng/ml) for 1 day. FIG. 8B) MG132 (120 nM) was added to the melanocyte culture medium to inhibit proteasomal degradation during treatment of HEM-LP and HEM-DP melanocytes with or without NRG-1 (50 ng/ml). Proteins were extracted for each sample, and ERBB2 levels were detected by western blotting. Results are representative of three studies.
Fibroblast cultures in 100-mm dishes were solubilized in appropriate volumes of M-PER mammalian protein extraction reagent (Pierce Biotechnology, Rockford, Ill.) containing a Protease Inhibitor mixture (Roche, Mannheim, Germany) and phosphatase inhibitors. The protein concentration of each extract was measured using a BCA protein assay kit (Pierce, Rockford, Ill.). Cell extracts (20 μg) were separated on 8-16% gradient SDS polyacrylamide gels (Invitrogen, Carlsbad, Calif.), after which proteins were transferred to PVDF membranes (Invitrogen, Carlsbad, Calif.). Membranes were blocked for 1 hour in PBS or Tris buffered saline (TBS) containing 0.1% Tween 20 and 5% (w/v) nonfat dry milk powder and were incubated overnight at 4° C. with the primary antibody in PBS containing 0.1% Tween 20 and 2.5% (w/v) nonfat dry milk powder or in 0.1% Tween-TBS with 5% BSA, depending on the antibody. The following primary antibodies were used: anti-human DKK-1 (0.2 μg/ml), anti-human DKK-3 (0.1 μg/ml), anti-human bFGF (0.1 μg/ml), anti-human SCF (0.1 μg/ml), anti-human mouse monoclonal ERBB3 (1 μg/ml) and anti-human mouse monoclonal ERBB4 (2 μg/ml) antibodies from R&D Systems, neuregulin-1α/β1/2 (C-20) (1:500) and GAPDH (FL-335) (1:10,000) antibodies from Santa Cruz Biotechnology, ERBB2 rabbit monoclonal (1:1000) and phospho-Akt (Ser473) (1:1000) antibodies from Cell Signaling Technology. Membranes were then incubated with an HRP-linked anti-rabbit antibody (GE Healthcare) at 1:10,000 dilution or with an anti-goat antibody (DAKO) at 1:2,000 dilution at room temperature for 1 hour. Antigen-antibody complexes were detected using an ECL-plus Western blotting detection system (GE Healthcare). […]

[1] = system: MelanoDerm 3-D reconstructed human skin; experiment: Pigmentation of 3-D reconstructed skin (MelanoDerm), L value and microscopy; type: cell-based; conditions: for ΔL (pigmentation, L value): day 9, vs vehicle
Description: Light, Medium, and Dark human epidermal equivalents (MelanoDerm®) were purchased from MatTek Corp. (Ashland, Mass.). MelanoDerms were grown at the air/liquid interface of the maintenance medium MEL-LLMM (MatTek Corp.), and the culture medium was renewed every 2 days. Where noted, MelanoDerms were treated for 9 days with 50 ng/ml NRG-1 (rhNRG-1-β1, R&D Systems, Minneapolis, Minn.) prepared in phosphate-buffered saline (PBS) with 0.1% bovine serum albumin (BSA) and MelanoDerm maintenance medium. The same concentrations of PBS and BSA were used for mock-treated controls.
For the studies where the MelanoDerms were treated with NRG-1 and/or various pan-ERBB inhibitors, Dark MelanoDerms were first incubated with a pan-ERBB inhibitor (0.5 μM Compound 39, EMD Chemicals, Gibbistown, N.J. or 2 μM CI-1033, Selleck Chemicals LLC, US) for 30 minutes or with vehicle (DMSO) only before treatment with 50 ng/ml NRG-1; identical amounts of DMSO (0.02%) were added to all samples. Treatment was renewed every 2 days in fresh medium and was continued for 9 days.
Three dimensional (3-D) reconstructed human skin models (termed MelanoDerms) were used to test the effects of NRG-1 on skin pigmentation. Three types of MelanoDerm, ‘light’ ([…]), ‘medium’ ([…]) and ‘dark’ ([…]), were used to compare the effects of NRG-1 on those three types of skin. In preliminary studies to optimize the concentration of NRG-1 (from 10 to 200 ng/ml were tested, FIG. 10), 50 ng/ml was chosen which was consistent with concentrations of NRG-1 used for other cell types by other groups. NRG-1 was added to the MelanoDerm media at 50 ng/ml and the medium was replenished every 2 days. On day 9, the MelanoDerms treated with NRG-1 were compared to controls treated only with vehicle. Pigmentation of the skin was assessed using the L value, higher L values indicating lighter colors. […] It should be noted that relatively small changes in ΔL can represent relatively large changes in visible skin color. For example, the mean L value of White/Caucasian skin is 67, that of Asians, Pacific-Islanders is 65, that of Hispanic/Latinos is 64, and that of American Indian/Alaska Native is 62. […] In the vehicle-treated control MelanoDerms, melanin pigment was more evenly distributed throughout the entire epidermis and no visible melanin accumulation was observed around melanocytes (FIG. 3B). […] Therefore, NRG-1 leads to visible increases in pigmentation in the MelanoDerms which was greater as the skin had more constitutive pigmentation.

ERBB3 = ERBB3 protein level by western blotting in melanocytes; type: cell-based, human; conditions: NRG-1 50 ng/ml, 5 days
Description: as §1
Fibroblast cultures in 100-mm dishes were solubilized in appropriate volumes of M-PER mammalian protein extraction reagent (Pierce Biotechnology, Rockford, Ill.) containing a Protease Inhibitor mixture (Roche, Mannheim, Germany) and phosphatase inhibitors. The protein concentration of each extract was measured using a BCA protein assay kit (Pierce, Rockford, Ill.). Cell extracts (20 μg) were separated on 8-16% gradient SDS polyacrylamide gels (Invitrogen, Carlsbad, Calif.), after which proteins were transferred to PVDF membranes (Invitrogen, Carlsbad, Calif.). […] Antigen-antibody complexes were detected using an ECL-plus Western blotting detection system (GE Healthcare). […]

B1: NRG-1: commercially available recombinant human neuregulin-1 (rhNRG-1-β1, R&D Systems), SEQ ID NO: 11 (protein)
chain: TSHLVKCAEKEKTFCVNGGECFMVKDLSNPSRYLCKCPNEFTGDRCQNYVMASFYKHLGIEFMEAEELYQK
**Q.** For B1, which “Expression of ERBB2” value (ERBB2; HEM-LP and HEM-DP, NRG-1 50 ng/ml, 5 days) is on record?
**A.** The value was “almost completely undetectable”.

**Q.** What about the “Level of ERBB2” value (ERBB2; both types of melanocytes, NRG-1, 1 day) of the same molecule?
**A.** The value was “significantly decrease”.

**Q.** And the ERBB2 expression (ERBB2; both types of melanocytes, NRG-1, day 3, lasted until day 9)?
**A.** Its ERBB2 expression is “completely disappeared”.

**Q.** What about the “Melanocyte growth in MelanoDerm skin model” value ([1]; MelanoDerm, NRG-1) of the same molecule?
**A.** The value was “did not increase melanocyte growth”.

**Q.** And the “Melanocyte morphology, bright field microscopy” value ([1]; MelanoDerms, NRG-1 50 ng/ml, vs vehicle-treated control)?
**A.** The value was “more abundant cytoplasm with thicker dendrites”.

**Q.** And the “ΔL (pigmentation, L value)” value ([1]; dark MelanoDerms, NRG-1 50 ng/ml)?
**A.** The value was −3.

**Q.** What about the “ΔL (pigmentation, L value)” value ([1]; light MelanoDerms, NRG-1 50 ng/ml) of the same molecule?
**A.** The value was −1.

**Q.** And the “ΔL (pigmentation, L value)” value ([1]; medium MelanoDerms (Asian skin), NRG-1 50 ng/ml)?
**A.** The value was −2.

**Q.** And the ERBB3 expression level (ERBB3; HEM-DP)?
**A.** Its ERBB3 expression level is “not affected”.

**Q.** What about the ERBB3 expression level (ERBB3; HEM-LP) of the same molecule?
**A.** The ERBB3 expression level was “no detectable change”.
